Target: recombinant human Prx4 (human) (UniProt Q13162)
Test: SPR; ProteOn XPR36; Ero1α (WT) or Prx4 amine-coupled to a GLC chip, PDI or ERp44 as analyte (0.444–36 μM); 25 °C; 20 mM HEPES-NaOH pH 7.4, 150 mM NaCl, 0.001% Tween, 2 mM EDTA; two-state model

Sequence of recombinant human PDI, P07237 18-508 (natural protein; other documents disagree on this pair) (P07237 18-508): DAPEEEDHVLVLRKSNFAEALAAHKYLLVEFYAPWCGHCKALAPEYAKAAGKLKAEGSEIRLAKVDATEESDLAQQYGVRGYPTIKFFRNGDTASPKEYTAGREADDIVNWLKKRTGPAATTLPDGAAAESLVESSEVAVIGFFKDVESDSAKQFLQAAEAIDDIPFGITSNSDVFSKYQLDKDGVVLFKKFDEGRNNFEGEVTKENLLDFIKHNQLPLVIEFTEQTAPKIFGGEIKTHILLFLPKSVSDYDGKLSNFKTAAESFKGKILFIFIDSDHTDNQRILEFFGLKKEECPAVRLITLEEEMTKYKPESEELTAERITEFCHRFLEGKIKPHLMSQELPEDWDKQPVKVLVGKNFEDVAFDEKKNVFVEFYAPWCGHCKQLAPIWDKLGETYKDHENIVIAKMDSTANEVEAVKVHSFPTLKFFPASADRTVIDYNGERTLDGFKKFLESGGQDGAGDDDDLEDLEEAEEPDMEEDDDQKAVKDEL
Sequence of recombinant human Prx4 (human) (Q13162 38-271): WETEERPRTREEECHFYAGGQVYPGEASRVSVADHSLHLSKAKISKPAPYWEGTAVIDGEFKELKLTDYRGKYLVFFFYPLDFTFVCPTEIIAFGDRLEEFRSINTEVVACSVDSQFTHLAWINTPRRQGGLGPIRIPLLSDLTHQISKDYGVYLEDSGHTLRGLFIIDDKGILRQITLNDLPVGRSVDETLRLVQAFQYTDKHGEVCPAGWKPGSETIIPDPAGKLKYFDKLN

Kd: 10.6 µM
Substance: recombinant human PDI, P07237 18-508 (natural protein; other documents disagree on this pair)
